Drawing on patent publication US6001988, “High affinity nucleic acid ligands to lectins” (NeXstar Pharmaceuticals, Inc.), this text covers Kd for nine molecules.

The target of data set [1] is T1, E-selectin (ES-Rg) (Homo sapiens, UniProt P16581 P16581:22-556).
T1 chain: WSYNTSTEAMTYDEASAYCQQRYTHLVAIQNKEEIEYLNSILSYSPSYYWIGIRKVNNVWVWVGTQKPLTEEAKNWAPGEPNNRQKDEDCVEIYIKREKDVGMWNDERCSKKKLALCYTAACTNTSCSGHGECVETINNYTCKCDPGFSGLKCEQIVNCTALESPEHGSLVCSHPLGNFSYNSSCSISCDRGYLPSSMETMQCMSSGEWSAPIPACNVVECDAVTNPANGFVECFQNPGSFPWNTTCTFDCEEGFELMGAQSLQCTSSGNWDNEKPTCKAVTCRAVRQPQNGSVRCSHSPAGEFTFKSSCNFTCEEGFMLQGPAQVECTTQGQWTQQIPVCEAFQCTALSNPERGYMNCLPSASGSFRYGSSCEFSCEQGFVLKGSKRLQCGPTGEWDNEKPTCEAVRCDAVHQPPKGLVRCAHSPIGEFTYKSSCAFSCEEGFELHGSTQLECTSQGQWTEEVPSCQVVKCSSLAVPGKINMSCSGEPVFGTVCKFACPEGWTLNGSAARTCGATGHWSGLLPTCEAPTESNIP
The data set can be described thus: filter; 4 C, HSMC. Conditions: tags: human IgG1 Fc fusion (provided by A. Varki), chain copies: 2, label: 32P. The procedure: (§1) As described in SELEX Patent Applications, the nitrocellulose filter partitioning method was used to determine the affinity of RNA ligands for LS-Rg and for other proteins. Filter discs (nitrocellulose/cellulose acetate mixed matrix, 0.45 um pore size, Millipore) were placed on a vacuum manifold and washed with 2 ml of HSMC buffer under vacuum. Reaction mixtures, containing ^32P labeled RNA pools and unlabeled LS-Rg, were incubated in HSMC for 10–20 min at 4° C., room temperature or 37° C., filtered, and then immediately washed with 4 ml HSMC at the same temperature. The filters were air-dried and counted in a Beckman LS6500 liquid scintillation counter without fluor.
(§2) The affinity of L-selectin ligands to ES-Rg, PS-Rg and CD22β-Rg were determined by nitrocellulose partitioning. […] In general, a ligand's affinity for ES-Rg is 10^3-fold lower and that for PS-Rg is about 10^4-fold less than for LS-Rg. […] The specificity of oligonucleotide ligand binding contrasts sharply with the binding of cognate carbohydrates by the selectins and confirms the assertion that SELEX ligands will have greater specificity than carbohydrate ligands.
(§3) *Dissociation constants were determined at 4° C. in HSMC buffer.

The target of data set [2] is T2, L-selectin (LS-Rg) (Homo sapiens, UniProt P14151 P14151:39-332).
T2 chain: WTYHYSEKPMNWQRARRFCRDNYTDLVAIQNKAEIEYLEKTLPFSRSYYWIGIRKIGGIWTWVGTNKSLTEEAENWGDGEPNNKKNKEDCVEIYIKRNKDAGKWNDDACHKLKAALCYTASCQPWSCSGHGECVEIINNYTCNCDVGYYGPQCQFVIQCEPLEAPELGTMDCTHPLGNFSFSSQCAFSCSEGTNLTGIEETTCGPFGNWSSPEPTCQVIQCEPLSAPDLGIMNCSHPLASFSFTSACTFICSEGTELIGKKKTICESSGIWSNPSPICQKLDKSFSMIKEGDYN
The data set is described as follows: filter; 4 C, HSMC; 75 nM at room temp. To be noted: tags: human IgG2 Fc fusion (provided by A. Varki); label: 32P; hairpin. The procedure:
as §1
(§4) The dissociation constants for representative ligands from rounds 13 and 14, including all orphans, were determined by nitrocellulose filter binding experiments and are listed in Table IX. These calculations assume two RNA ligand binding sites per chimera. The affinity of random RNA cannot be reliably determined but is estimated to be approximately 10 µM.

For data set [3], the target named is T3, P-selectin (PS-Rg) (Homo sapiens, UniProt P16109 P16109:42-321).
T3 chain: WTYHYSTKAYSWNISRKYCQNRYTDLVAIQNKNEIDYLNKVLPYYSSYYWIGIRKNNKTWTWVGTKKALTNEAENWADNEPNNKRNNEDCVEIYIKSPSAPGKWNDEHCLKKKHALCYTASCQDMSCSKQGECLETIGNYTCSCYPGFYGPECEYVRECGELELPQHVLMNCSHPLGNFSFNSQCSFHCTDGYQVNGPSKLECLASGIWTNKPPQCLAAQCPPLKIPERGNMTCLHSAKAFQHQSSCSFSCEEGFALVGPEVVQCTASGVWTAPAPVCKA
The data set is described as follows: filter; room temp. Conditions: tags: human IgG1 Fc fusion (provided by A. Varki); chain copies: 2; label: 32P; hairpin. As to the method: (§5) RNA was reverse transcribed into cDNA by AMV reverse transcriptase at 48° C. for 60 min in 50 mM Tris-Cl pH (8.3), 60 mM NaCl, 6 mM Mg(OAc)_2, 10 mM DTT, 100 pmol DNA primer, 0.4 mM each of dNTPs, and 0.4 unit/µl AMV RT. […] C) Nitrocellulose Filter Partitioning As described in SELEX Patent Applications, the nitrocellulose filter partitioning method was used to determine the affinity of RNA ligands for WGA and for other proteins. Filter discs (nitrocellulose/cellulose acetate mixed matrix, 0.45 µm pore size, Millipore; or pure nitrocellulose, 0.45 µm pore size, Bio-Rad) were placed on a vacuum manifold and washed with 4 ml of HBSS buffer under vacuum. Reaction mixtures, containing ^32P labeled RNA pools and unlabeled WGA, were incubated in HBSS for 10 min at room temperature, filtered, and then immediately washed with 4 ml HBSS. The filters were air-dried and counted in a Beckman LS6500 liquid scintillation counter without fluor. WGA is a homodimer, molecular weight 43.2 kD, with 4 GlcNAc binding sites per dimer. For affinity calculations, we assume one RNA ligand binding site per monomer (two per dimer). The monomer concentration is defined as 2 times the dimer concentration. […]
(§6) The affinity of representative cloned ligands for LS-Rg, ES-Rg, PS-Rg, CD22β-Rg and WGA was determined by nitrocellulose partitioning and the results shown in Table XIV. […]
(§7) *Kds were determined at room temperature.

For data set [4], the target named is T1, E-selectin (ES-Rg). The data set can be described thus: filter; room temp. To be noted: tags: human IgG1 Fc fusion (provided by A. Varki); chain copies: 2; label: 32P; hairpin. The procedure:
as §5, §6, §7

The target in data set [5] is T2, L-selectin (LS-Rg). The data set is described as follows: filter; room temp, Ca/Mg; 160 pM at 37 C. To be noted: tags: human IgG2 Fc fusion (provided by A. Varki); label: 32P; hairpin.
In data set [6] the target is T3, P-selectin (PS-Rg). The data set can be described thus: filter; 4 C, HSMC. Conditions: tags: human IgG1 Fc fusion (provided by A. Varki); chain copies: 2; label: 32P; hairpin. The procedure: as §1, §2, §3
Data set [7] deals with T2, L-selectin (LS-Rg). The data set can be described thus: filter; 4 C, HSMC; 14.9 nM at room temp. To be noted: tags: human IgG2 Fc fusion (provided by A. Varki); label: 32P; hairpin. The procedure:
as §1, §4

Data set [8] concerns the target T2, L-selectin (LS-Rg). The data set can be described thus: filter; 4 C, HSMC; 15.4 nM at room temp. To be noted: tags: human IgG2 Fc fusion (provided by A. Varki); label: 32P; hairpin. The procedure: as §1, §4
In data set [9] the target is T2, L-selectin (LS-Rg). The data set is described as follows: filter; 4 C, HSMC; 15.9 nM at room temp. To be noted: tags: human IgG2 Fc fusion (provided by A. Varki); label: 32P; hairpin. As to the method: as §1, §4
In data set [10] the target is T2, L-selectin (LS-Rg). The data set can be described thus: filter; 4 C, HSMC; 18 nM at room temp. To be noted: tags: human IgG2 Fc fusion (provided by A. Varki); label: 32P. The procedure:
as §1, §4

Data set [11] has as its target T4, wheat germ agglutinin (WGA) (Triticum vulgare, UniProt P10968 P10968:27-197).
T4 sequence: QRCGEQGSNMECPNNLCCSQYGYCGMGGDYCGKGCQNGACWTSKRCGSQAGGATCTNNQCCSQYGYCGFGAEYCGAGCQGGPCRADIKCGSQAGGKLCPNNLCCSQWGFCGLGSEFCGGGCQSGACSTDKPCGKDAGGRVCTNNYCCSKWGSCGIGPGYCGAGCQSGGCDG
The data set can be described thus: filter; HBSS, room temp; 19.2 nM in Table IV. Conditions: tags: free lectin, E Y Laboratories; label: 32P; hairpin. As to the method:
The specifically eluted fraction was processed for use in the following round. Fractions eluted from immobilized WGA were heated at 90° C. for 5 minutes in 1% SDS, 2% β-mercaptoethanol and extracted with phenol/chloroform. RNA was reverse transcribed into cDNA by AMV reverse transcriptase at 48° C. for 60 min in 50 mM Tris-Cl pH (8.3), 60 mM NaCl, 6 mM Mg(OAc)_2, 10 mM DTT, 100 pmol DNA primer, 0.4 mM each of dNTPs, and 0.4 unit/µl AMV RT. […] C) Nitrocellulose Filter Partitioning As described in SELEX Patent Applications, the nitrocellulose filter partitioning method was used to determine the affinity of RNA ligands for WGA and for other proteins. Filter discs (nitrocellulose/cellulose acetate mixed matrix, 0.45 µm pore size, Millipore; or pure nitrocellulose, 0.45 µm pore size, Bio-Rad) were placed on a vacuum manifold and washed with 4 ml of HBSS buffer under vacuum. Reaction mixtures, containing ^32P labeled RNA pools and unlabeled WGA, were incubated in HBSS for 10 min at room temperature, filtered, and then immediately washed with 4 ml HBSS. The filters were air-dried and counted in a Beckman LS6500 liquid scintillation counter without fluor. WGA is a homodimer, molecular weight 43.2 kD, with 4 GlcNAc binding sites per dimer. For affinity calculations, we assume one RNA ligand binding site per monomer (two per dimer). […]

Data set [12] deals with T2, L-selectin (LS-Rg). The data set is described as follows: filter; 4 C, HSMC. To be noted: tags: human IgG2 Fc fusion (provided by A. Varki); label: 32P; no stem. The procedure:
as §1, §4

The target in data set [13] is T2, L-selectin (LS-Rg). The data set can be described thus: filter; 4 C, HSMC; 9.2 nM at room temp. To be noted: tags: human IgG2 Fc fusion (provided by A. Varki); label: 32P; hairpin. As to the method: as §1, §4

Usually Kd stands for the equilibrium constant for the complex coming apart. High values mean a looser complex, low ones a tighter complex.

B1: F13.57 (ssRNA)
RNA: GGGAGGACGAUGCGGUAACAUAAAGUAGCGCGUCUGUGAGAGGAAGUGCCUGGAUCAGACGACUCGCCCGA
modifications: 2'-NH2 all C and U
For B1, the Kd came to 2700 nM in data set [1] (hairpin) and 3 nM in data set [2].

B2: 227 (ssDNA)
DNA: CTACCTACGATCTGACTAGCCGGACATGAGCGTTACAAGGTGCTAAACGTAACGTACTTGCTTACTCTCATGTAGTTCC
As for B2, the equilibrium dissociation constant (Kd) in data set [3] came out at 560 nM; in data set [4], 33 nM; in data set [5], 0.043 nM.

B3: F13.32 (ssRNA)
RNA: GGGAGGACGAUGCGGCGCGUAUGUGUGAAAGCGUGUGCACGGAGGCGUCUACAAUCAGACGACUCGCCCGA
modifications: 2'-NH2 all C and U
As to B3, the Kd was 17000 nM in [6] and 15.7 nM in data set [7].

B4: F14.9 (ssRNA)
RNA: GGGAGGACGAUGCGGAAACCUUGAUGUGUGAUAGAGCAUCCCCCAGGCGACGUACCAGACGACUCGCCCGA
modifications: 2'-NH2 all C and U
On to B4, for which binding in data set [8] was put at a Kd of 8.2 nM.

B5: F14.21 (ssRNA)
RNA: GGGAGGACGAUGCGGUUGAGAUGUGUGAGUACAAGCUCAAAAUCCCGUUGGAGGCAGACGACUCGCCCGA
modifications: 2'-NH2 all C and U
Consider B5, for which the Kd was found to be 2.3 nM in data set [9] and 2600 nM in data set [1] (hairpin).

B6: F13.51 (ssRNA)
RNA: GGGAGGACGAUGCGGAUGUAAAUCUAGGCAGAAACGUAGGGCAUCCACCGCAACGACAGACGACUCGCCCGA
modifications: 2'-NH2 all C and U
With B6, the Kd in data set [1] stood at 2000 nM; in [10] it was 8.8 nM.

B7: 11.24 (ssRNA)
RNA: GGGAAAAGCGAAUCAUACACAAGACGGCUGUGUGGUGUUGGAGCGUCAUAGUAGGAGUCGUCACGAACCAAGGCGCUCCGCCAGAGACCAACCGAGAA
modifications: 2'-NH2 all C and U
Molecule B7 had a Kd in [11] of 19.4 nM.

B8: F14.25 (ssRNA)
RNA: GGGAGGACGAUGCGGUAGAGGUAGUAUGUGUGGGAGAUGAAAAUACUGUGGAAAGCAGACGACUCGCCCGA
modifications: 2'-NH2 all C and U
B8 showed a Kd in data set [12] of 1300 nM.

B9: F13.48 (ssRNA)
RNA: GGGAGGACGAUGCGGAAAGUUAUGAGUCCGUAUAUCAAGGUCGACAUGUGUGAAUCAGACGACUCGCCCGA
modifications: 2'-NH2 all C and U
Turning to B9, the equilibrium dissociation constant (Kd) in data set [13] amounted to 15.9 nM; in data set [6], 720 nM.
